± gives the uncertainty stated by the source.
Assay: amyloid nucleation score (Sup35N fusion, yeast selection) (log enrichment); library NNK3; higher = more nucleation; inactive = no reads after selection
Outline: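 Nucleation score: DiMSum log enrichment of output over input reads, centred on the mode score of non-aggregating sequences. Only sequences with at least 100 input reads were kept. Reads came from Illumina sequencing of plasmid inserts before and after 7 days of growth at 30°C without adenine and uracil, in psi-negative yeast expressing Sup35N fused to peptides of 20 random codons after 24 hours of induction with 100 μM copper sulfate.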

Substance | amyloid nucleation score
QMYSLWCKKCMFYDGCEGVS | inactive
NVRGNNLSRM | inactive
NLEYDPIRHRNVLNPSWFCS | inactive
SRYMARTSDPARYVTPVSNT | inactive
LESEASGYKMSKVRVAQCRR | inactive
RNKSSNFREHPVTSRITCRS | inactive
IDKVLGPKVPAHRTSGGLSK | inactive
YGPQGVGLMGSLIAVISFIR | 1.12 ± 0.16
IYRLDSSTSCICHCFLILVF | inactive
EMFYSVCFIYRIMFT | 1.25 ± 0.089
SQHHPSGSSMWGKWIMLDPR | inactive
VLKMAACNPGTNSLSTPGCG | inactive
RHCGRALCDWLVIRWGSGYT | inactive
IVTIFSFQYGWGFLCTRLNF | inactive
GVFFFNYLNS | 0.63 ± 0.14
LVFFFLWHSHENFNHDLVSK | inactive
LGQFQCQE | inactive
PSNYWNEFYFCSSIHSCGE | 3.28 ± 0.07
IRRDLYQATPRNLVWAYFGW | inactive
MMPIRKKMNHRVTWEILWQR | inactive
HKWSAAIEIGSVKDNRIKLL | inactive
AACYINMCIGIVYGYSFLSF | 1.13 ± 0.087
HWLTSSVKSLTPRSGQKGLD | inactive
HSVFFY | inactive

Substance | amyloid nucleation score
EFKIALRRPINERAESLVTR | inactive
YLKWTNVVKMGHSKSSTE | 1.29 ± 0.1
GYSKNI | inactive
VRLSVMG | inactive
FIGQGTNWYPYSVGANVSHH | -0.241 ± 0.8
RLIWFE | inactive
VVLFKISSYPRHIHFGFHLL | inactive
QSCVIVLKIGFWDVHSSMTF | 0.426 ± 0.19
LFYGNW | inactive
LLPLDSHYISSPFY | inactive
RRARFFVHAQVRWVCFWAMK | inactive
ISSNVWARDIRNWLNVTGYC | inactive
NSRSKNWGLVFPSNRGLVS | inactive
ACCRSNDYDSYTPFDVVNHW | inactive
NRAVQRFCCDFNAPHIPFR | inactive
FSPFYCHILLH | inactive
NFSNHCRKLGEME | inactive
GRDMMWAVCDFEAKLELETG | inactive
CNSETRAFYYLALWVLFFFN | inactive
TCSLFFSYPYIGRQHGCGRY | 0.444 ± 0.46
YRLCRGFNSFI | inactive
NVYELIDCGLTYQVYSYGSR | 0.611 ± 0.24
FTRYRNVFKWTMWFSYFWQA | inactive
DVLRVFLFSSFIILCVGCTY | inactive

Substance | amyloid nucleation score
GMERFNGFKRVFMDSGCLHR | -0.707 ± 0.96
IVERSGVSGIWYLSGDLAKV | inactive
IFVSCCLLRLSAGWVVKLIR | inactive
NAFWAILVGPIDPEVSGTYG | inactive
PWSHSS | inactive
VRSRMSNWFNHPTVFDRLWA | 0.547 ± 0.2
IILTIGRMGLFNMAK | -0.152 ± 0.47
DGFLKLEFAFQCFTRLCLAF | inactive
TIVNGNVEFGMKLEWEHGCI | inactive
IINLQSWQHLLNRHGTELSV | inactive
EAGSVSYWFVATRPLKRACP | inactive
TKDGHYA | inactive
GDMKGSISCIIKKEVINVQC | inactive
YVDIY | inactive
VNGFFLVACTCSYFNNRSSW | 1.57 ± 0.12
NNGRYLMGRRKESDLLLGQW | inactive
RNGDCLWIFR | 0.732 ± 0.28
DTVRHLISYRGLGRLHRHTM | inactive
VRSVRGADELDLICHRLSRN | inactive
IADDQTYLLVLLFYFIKKLN | inactive
LRCHLRKGSRISRSL | inactive
RVMRSDDVWMCSSLHDFCAV | inactive
SVCLSDRSSGS | inactive
DDFVG | inactive

Substance | amyloid nucleation score
SFWIV | inactive
SYRVCMCSTLVVVVSSRGLS | 0.823 ± 0.17
GGCIGGSYSLERMFYSRVDE | inactive
FMTVQLLH | 1.85 ± 0.1
KAKPVSKCA | inactive
LEYYAS | inactive
FKSLHTGVQRNTLCARSRTF | inactive
CFAVWHISVEMYVRDRW | inactive
FLFFTEAGYM | inactive
RPYHSEKYDKFVDAMSFWCW | inactive
CKHYVGLYKLTVWRFCGKNT | inactive
DEFINLSFA | inactive
PFSWCFICKSL | inactive
IDAYPVWELITLFLFGLMLY | inactive
RSFSNSDRMVSNLQFCYYFG | 2.77 ± 0.053
HNRKYYTI | inactive
NWNYLISMRGFTEYGESFWW | -0.18 ± 0.61
LSELYHTFYSVVNGGHVLMI | inactive
FMNKLGDFNLP | inactive
FMHPADVEHGTREYLNVTGG | inactive
NVHMMC | inactive
GYRDLRGWNVNRKDSLVS | inactive
TRLKFTLDWELM | 1.06 ± 0.098
TTCCRFYREIKFFRIS | inactive

Substance | amyloid nucleation score
TFKLD | inactive
HRDNLWRWNFFCPNY | 0.993 ± 0.12
CVSYAISNGLRMEFSKENQY | 0.415 ± 0.14
MSFGKSCEVKGGL | inactive
RVLYGTICIFVGYFLVMSCV | -0.21 ± 0.57
QAFDFTHHPFHDRSWNGHWS | inactive
CSGDD | inactive
HALSRDVVKMLCSFNNYLTW | inactive
TFLKGSLFCCYYTRDAVDYI | 2.64 ± 0.054
ELRQFSP | inactive
SQMSPSNDMWLALNV | inactive
VLFKYTSRIMDCVKTLKPLK | inactive
IIQALVF | inactive
FGTLSQVHIH | inactive
VVWASV | inactive
SHNVSTWRMICSWLVRPFIR | inactive
KMKSAIIPVECGSR | inactive
LWRGLVIWLMLSGLKCGLHL | inactive
AHGEMRAVKPINFKACWRCL | inactive
KILRRNTWNMFPAALCGVSF | 0.997 ± 0.21
CPVLGCMSTGEYHCFLTQTY | inactive
HITLKSYARIV | inactive
TRVHWHR | 1.63 ± 0.1

— the supplement of paper PMC12042874
